According to the RNAGym collection of RNA variant scans (doi:10.7554/elife.90254):

B1: OR4K15 (parent)
chain: GUUAACGGUCAUAGGCCAUGGAAACUAGGAGCACCAUUUCGCUGCCAGUGAAGAAAUGAACAAAGAAAAUCUGGGCCAGGCAGGCAUCAAAAGAAAUAGUCUUGCGCUCAACCAGAAAGUCUGUAAUCAUUUUAAGGGUA

Variants of: B1
Test: self-cleavage, relative activity (ratio to wild type); higher = more cleavage; in vitro, sequencing; the parent is a self-cleaving ribozyme
GUUAACGGUCAUAGGCCAUGGAAACUGGGAGCACCAUUUCGCUGCCAGUGAAGAAAUGAACAAAGAAAAUCUGGGCCAGGCAGGCAUCAAAAGAAAUAGUCUUGCGCUCAACCAGAAAGUCUGUAAUCGUUUUAAGGGUA gave a self-cleavage of 1.06. Work on GUUAACGGUCAUAGGCCAUGGAAACUUGGAGCACCAUUUCGCUGCCAGUGAUGAAAUGAACAAAGAAAAUCUGGGCCAGGCAGGCAUCAAAAGAAAUAGUCUUGCGCUCAACCAGAAAGUCUGUAAUCAUUUUAAGGGUA yielded a self-cleavage of 2. In the case of GUUAACGGUCAUAGGCCAUGGAAACUUGGAGCACCAUUUCGCUGCCAGUGAAGAAAUGAACAAGGAAAAUCUGGGCCAGGCAGGCAUCAAAAGAAAUAGUCUUGCGCUCAACCAGAAAGUCUGUAAUCAUUUUAAGGGUA, the self-cleavage is reported as 1.58. For GUUAACGGUCAUAGGCCAUGGAAACUGGGAGCACCAUUUCGCUGCCAGUGAAGAAAUGAACAAAGAAAAUCUGGGCCAGGCAGGCAUCAAAAGAAAUAGUCUUGCGCUCAACCAGAAAGUCUGUAGUCAUUUUAAGGGUA, the self-cleavage was 0.8. Variant GUUAACGGUCAUAGGCCAUGGAAACUGGGAGCACCACUUCGCUGCCAGUGAAGAAAUGAACAAAGAAAAUCUGGGCCAGGCAGGCAUCAAAAGAAAUAGUCUUGCGCUCAACCAGAAAGUCUGUAAUCAUUUUAAGGGUA has a self-cleavage of 1.27. In the case of GUUAACGGUCAUAGGCCAUGGAAACUUGGAGCACCAUUUCGCUGCCAGUGAAGAAAUGAACAAAGAAAAUCUGGGCCAUGCAGGCAUCAAAAGAAAUAGUCUUGCGCUCAACCAGAAAGUCUGUAAUCAUUUUAAGGGUA, the self-cleavage is reported as 0.09. Work on GUUAACGGUCAUAGGCCAUGGAAACUGGGAGCACCAUUUCGCUGCCAGUGAAGAAAUGAACAAAGAAAAUCUGGGCCAGGCAGGCAUCAAAAGAAAUAGUCUUGCGCUCAACCAGAAAGUCUGUAAUCAUUUUAGGGGUA yielded a self-cleavage of 0.84. In the case of GUUAACGGUCAUAGGCCAUGGAAACUUGGAGCACCAUCUCGCUGCCAGUGAAGAAAUGAACAAAGAAAAUCUGGGCCAGGCAGGCAUCAAAAGAAAUAGUCUUGCGCUCAACCAGAAAGUCUGUAAUCAUUUUAAGGGUA, the self-cleavage is reported as 1.83. For GUUAACGGUCAUAGGCCAUGGAAACUUGGAGCACCAUUUCGCUGCCAGUGAAGAAAUGAACAAAGAAAAUCUGGGCCAGGCAGGCAUCAAAAGAAAUAGUCUUGCGCUCAACCUGAAAGUCUGUAAUCAUUUUAAGGGUA, the self-cleavage was 0.14. Work on GUUAACGGUCAUAGGCCAUGGAAACUUGGAGCACCACUUCGCUGCCAGUGAAGAAAUGAACAAAGAAAAUCUGGGCCAGGCAGGCAUCAAAAGAAAUAGUCUUGCGCUCAACCAGAAAGUCUGUAAUCAUUUUAAGGGUA yielded a self-cleavage of 1.42. GUUAACGGUCAUAGGCCAUGGAAACUUGGAGCACCAUUUCGCUGCCAGUGAAGAAAUGAACAAAGAAAAUCUGGGCCAGGCAGGCAUCAAAAGAAAUAGUCUUGCGCUCAACCAGAAAGUCUGUAAUCAUUUUAAGGGUA showed a self-cleavage of 0.91. For GUUAACGGUCAUAGGCCAUGGAAACUGGGAGCACCAUUUCGCUACCAGUGAAGAAAUGAACAAAGAAAAUCUGGGCCAGGCAGGCAUCAAAAGAAAUAGUCUUGCGCUCAACCAGAAAGUCUGUAAUCAUUUUAAGGGUA, the self-cleavage was 1.52. GUUAACGGUCAUAGGCCAUGGAAACUGGGAGCACCAUUUCGCUGCCAGUGAAGAAAUGAACAAAGAAAAUCUGGGCCAGGCAGGCAUCAAAAGAAAUAGUCCUGCGCUCAACCAGAAAGUCUGUAAUCAUUUUAAGGGUA showed a self-cleavage of 1.06. In the case of GUUAACGGUCAUAGGCCAUGGAAACUUGGAGCACCAUUUCGCUGCCAGUGAAGGAAUGAACAAAGAAAAUCUGGGCCAGGCAGGCAUCAAAAGAAAUAGUCUUGCGCUCAACCAGAAAGUCUGUAAUCAUUUUAAGGGUA, the self-cleavage is reported as 1.64. GUUAACGGUCAUAGGCCAUGGAAACUGGGAGCACCAUUUCGCUGCCAGUGAAGAAAUGAACAAAGAAAAUCUGGGCCAGGCAGGCAUCAAAAGAAAUAGUCUUGCGCUCAACCAGAAAGUCUGUAAUCAUUUUAAGGGCA showed a self-cleavage of 1.05. With GUUAACGGUCAUAGGCCAUGGAAACUGGGAGCACCAUUUCGCUGCCAGUGAAGAAAUGAACAAAGAAAAUCUGGGCCAGGCAGGCAUCAAAAGAAAUAGUCUAGCGCUCAACCAGAAAGUCUGUAAUCAUUUUAAGGGUA the self-cleavage was 0.45. Work on GUUAACGGUCAUAGGCCAUGGAAACUGGGAGCACCAUUUCGCUGCCAGUGAAGAAAUGAACAAAGAAAAUCUGGGCCAGGCAGGCAUCAAAAGAAAUAGUCUUGCGCUCAACCAGAAAGUCUGUAAUCAUUUCAAGGGUA yielded a self-cleavage of 1.58. Work on GUUAACGGUCAUAGGCCAUGGAAACUGGGAGCACCAUUUCGCUGCCAGUGAAGAAAUGAACAAAGAAAAUCUGGGCCAGGCAGGCAUCAAAAGAAAUAGUCUUGCGCUCAACCAGAAAGUCUGUUAUCAUUUUAAGGGUA yielded a self-cleavage of 1.41. GUUAACGGUCAUAGGCCAUGGAAACUUGGAGCACCAUUUCGCUGCCAGUGAAGAAAUGUACAAAGAAAAUCUGGGCCAGGCAGGCAUCAAAAGAAAUAGUCUUGCGCUCAACCAGAAAGUCUGUAAUCAUUUUAAGGGUA showed a self-cleavage of 1.64. GUUAACGGUCAUAGGCCAUGGAAACUGGGAGCACCAUUUCGCUGCCAGUGAAGAAAUGAACAAAGAAAAUCUGGGCCAGGCAGGCAUCAAAAGAAAUAGUCUUGCGCUCAACCAGAAAGUCUGUAAUCAUUCUAAGGGUA gave a self-cleavage of 0.79. Work on GUUAACGGUCAUAGGCCAUGGAAACUGGGAGCACCAUUUCGCCGCCAGUGAAGAAAUGAACAAAGAAAAUCUGGGCCAGGCAGGCAUCAAAAGAAAUAGUCUUGCGCUCAACCAGAAAGUCUGUAAUCAUUUUAAGGGUA yielded a self-cleavage of 1.41.
